Results on 8 molecules are retold here after patent US20200385445A1 (COMPUGEN, published 2020).

Experiment [1] concerns the target T1, human PVRL2-His (Catalog #2229-N2-050/CF, R&D Systems) (human, UniProt Q92692 32-360).
T1 construct: Bought (R&D Systems); also called His-tagged PVRL2 recombinant protein; PVRL2 (CD112)
T1 sequence (looked up): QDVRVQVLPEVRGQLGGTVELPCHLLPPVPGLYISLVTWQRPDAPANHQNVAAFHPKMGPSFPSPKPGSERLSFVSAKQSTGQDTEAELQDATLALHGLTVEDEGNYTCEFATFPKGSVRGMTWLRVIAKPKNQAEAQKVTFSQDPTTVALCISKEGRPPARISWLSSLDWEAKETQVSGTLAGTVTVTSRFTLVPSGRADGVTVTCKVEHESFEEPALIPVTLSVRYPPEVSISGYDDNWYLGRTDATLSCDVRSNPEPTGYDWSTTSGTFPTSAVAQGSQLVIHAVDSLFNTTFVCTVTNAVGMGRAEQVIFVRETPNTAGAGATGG
Put plainly: SPR ProteOn, analyte over Fc-captured ligand; complex kinetics.

The target of experiment [2] is T2, human PVRIG (Poliovirus Receptor Related Immunoglobulin Domain Containing Protein), full length on cells (human, UniProt Q6DKI7 41-326).
T2 construct: whole, on cells; Over-expressed on HEK293 (some pools flag-tagged) or endogenous on Jurkat, CA46, T cells, NK cells, TILs; also called hPVRIG; HEK hPVRIG
T2 sequence (looked up): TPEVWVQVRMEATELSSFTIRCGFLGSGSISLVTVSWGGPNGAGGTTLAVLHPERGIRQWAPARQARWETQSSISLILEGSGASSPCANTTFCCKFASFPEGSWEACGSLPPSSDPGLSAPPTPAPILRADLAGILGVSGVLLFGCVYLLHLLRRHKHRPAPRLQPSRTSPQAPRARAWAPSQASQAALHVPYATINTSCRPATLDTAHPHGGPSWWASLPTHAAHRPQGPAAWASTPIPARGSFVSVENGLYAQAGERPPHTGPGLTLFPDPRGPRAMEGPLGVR
In words: FACS on resting human CD4+ T cells.

The target of experiment [3] is T2, human PVRIG (Poliovirus Receptor …). Put plainly: FACS on CD4+ T cells, days 3-6 of activation.
For experiment [4] the target is unchanged. Put plainly: flow cytometry, Alexa 647 IgG titrated on HEK 293 cells expressing human PVRIG, 1:1 equilibrium fit. Background: A flow cytometer gives signals particle by particle.
Experiment [5] shares this target. Put plainly: FACS dose titration on PVRIG over-expressing HEK293 cells. As for the experimental part: FACS screening of the reformatted antibodies was done similarly to the PPE based screen described herein, except that a dose-dependent titration of the purified antibodies was performed. The human PVRIG over-expressing HEK293 cells, or the un-transfected HEK293 cells, were incubated with varying concentrations (0-10 μg/ml) of the anti PVRIG antibodies or isotype controls in FACS buffer at 4° C. for 60 mins. […] Cells were washed twice and re-suspended in a final volume of 80 μl of FACS buffer and Propidium Iodide (Biolegend cat #421301) diluted 1:1000. Samples were analyzed using an Intellicyt HTFC screening system (Intellicyt). Data was analyzed using FlowJo (DeNovo), exported to Excel (Microsoft) and plotted in GraphPad Prism (GraphPad Software, Inc.).
All unique ELISA and FACS binders were reformatted for expression as human IgG1 molecules in Expi293 cells. […] These reformatted antibodies were tested for retained binding to PVRIG over-expressing HEK293 cells alongside an irrelevant human IgG1 isotype control. All antibodies were also tested against un-transfected HEK293 cells.

In experiment [6] the target is T3, L95R/T97I cyno PVRIG ECD with C-terminal 6xHis tag (cynomolgus monkey).
T3 chain: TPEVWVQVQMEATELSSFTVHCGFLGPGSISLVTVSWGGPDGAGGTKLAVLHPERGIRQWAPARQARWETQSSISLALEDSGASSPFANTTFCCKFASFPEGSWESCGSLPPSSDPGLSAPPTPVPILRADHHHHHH
In words: ELISA on coated His-tagged PVRIG variant. A general note: An ELISA detects its analyte on a solid surface through an enzyme-linked reagent.

B1: human DNAM-1 fusion protein (human fc, R&D Systems) (Fc fusion, UniProt Q15762 19-247, looked up, not shown: a dimerising Fc or GST)
chain: EEVLWHTSVPFAENMSLECVYPSMGILTQVEWFKIGTQQDSIAIFSPTHGMVIRKPYAERVYFLNSTMASNNMTLFFRNASEDDVGYYSCSLYTYPQGTWQKVIQVVQSDSFEAAVPSNSHIVSEPGKNVTLTCQPQMTWPVQAVRWEKIQPRQIDLLTYCNLVHGRNFTSKFPRQIVSNCSHGRWSVIVIPDVTVSDSGLYRCYLQASAGENETFVMRLTVAEGKTDN
notes: Bought
B1: the binding result in experiment [1] is “binds”.

B2: Anti-human PVRIG - CPA.7.021, Human IgG2, conjugated to AF-647 (antibody, V domains shown)
VH: EVQLVESGGGVVKPGGSLRLSCAASGFTFGTSSMNWVRQAPGKGLEWVAVISFDGTEIHYADSVKGRFTISRDNSKSTVFLQMNSLRPDDTALYYCAKGSGNIYFYSGMDVWGQGTTVTVSS
VL: DIQMTQSPSTLSASVGDRVTITCRAGQSISGWLAWFQQKPGKAPNLLIYETSTLESGVPSRFSGSGSGTEYTLTISSLQPDDFATYYCQQYYSYPLTFGQGTKVEIK
modifications: Alexa Fluor 647 dye conjugated to the antibody (site not stated).
notes: also called Anti PVRIG-CPA.7.021 ab; CPA.7.021 IgG2 A647
Take B2: the “fold staining over isotype control” value in experiment [2] is 3 fold; in experiment [3] it was 2 to 3 fold.

B3: CPA.7.021 IgG conjugated with Alexa 647 (antibody, V domains shown)
VH: EVQLVESGGGVVKPGGSLRLSCAASGFTFGTSSMNWVRQAPGKGLEWVAVISFDGTEIHYADSVKGRFTISRDNSKSTVFLQMNSLRPDDTALYYCAKGSGNIYFYSGMDVWGQGTTVTVSS
VL: DIQMTQSPSTLSASVGDRVTITCRAGQSISGWLAWFQQKPGKAPNLLIYETSTLESGVPSRFSGSGSGTEYTLTISSLQPDDFATYYCQQYYSYPLTFGQGTKVEIK
modifications: Alexa Fluor 647 dye conjugated to the antibody (site not stated).
notes: also called Alexa647 labelled CPA.7.021 IgG; conjugated CPA.7.021
As a reminder, the Kd is a measure of binding affinity in units of concentration. Low readings indicate a tighter complex, high ones a looser complex. For the molecule B3, in experiment [4], the Kd was 2.5 nM.

B4: CPA.7.021 human IgG1 (antibody, V domains shown)
VH: EVQLVESGGGVVKPGGSLRLSCAASGFTFGTSSMNWVRQAPGKGLEWVAVISFDGTEIHYADSVKGRFTISRDNSKSTVFLQMNSLRPDDTALYYCAKGSGNIYFYSGMDVWGQGTTVTVSS
VL: DIQMTQSPSTLSASVGDRVTITCRAGQSISGWLAWFQQKPGKAPNLLIYETSTLESGVPSRFSGSGSGTEYTLTISSLQPDDFATYYCQQYYSYPLTFGQGTKVEIKR
Turning to B4, the Kd in experiment [5] was 11.2 nM. Further, the binding result in experiment [6] is on record as “binds”.

B5: CPA.7.036 human IgG1 (antibody, V domains shown)
VH: QVQLVQSGAEVKKPGSSVKVSCKASGGTFSSSAISWVRQAPGQGFEWMGGIIPIYGITDYAQKFQGRVTITTDESTSTAYMELSSLTSEDTAVYYCARDDTARRVRGVPYYYYYAMDVWGQGTTVTVSS
VL: DIVMTQTPLSLPVTPGEPASISCRPSQSLLDSDDGNTYLDWYLQKPGQSPQLLIHTLSYRASGVPDRFSGSGSGTDFTLKISRVEAEDVGVYYCMQRLQFPLTFGGGTKVEIKR
notes: also called CPA.7.36
B5 returned a Kd in experiment [5] of 6 nM.

B6: CPA.7.038 human IgG1 (antibody, V domains shown)
VH: QVQLVQSGAEVKKPGSSVKVSCKASGGTFSSSAISWVRQAPGQGFEWMGGIIPIYGITDYAQKFQGRVTITTDESTSTAYMELSSLTSEDTAVYYCARDDTARRVRGVPYYYYYAMDVWGQGTTVTVSS
VL: DIQMTQSPSSLSASVGDRVTITCQASRDISDSLSWYQQKPGKAPKLLIFDASNLKTGVSSRFSGSGSGTDFTFTISSLQPEDIATYYCHQYDNLPLTFGGGTKVEIKR
In the case of B6, in experiment [5], the dissociation constant Kd turned out to be 20.3 nM.

B7: CPA.7.049 human IgG1 (antibody, V domains shown)
VH: QMQLVQSGAEVKKPGSSVKVSCKASGGTFSSSAISWVRQAPGQGFEWMGGIIPIYGITDYAQKFQGRVTITTDESTSTAYMELSSLTSEDTAVYYCARDDTARRVRGVPYYYYYAMDVWGQGTTVTVSS
VL: DIVMTQTPLSLPVTPGEPASMSCRSSRSLLDSDDGNTHLDWYLQKPGQSPQLLIQSLSYRASGVPDRFSGSGSGTDFTLEISRVEAEDVGIYYCMQRKEFPLTFGGGTKVEIKR
As for B7, binding in experiment [5] was put at a Kd of 19.9 nM.

B8: CPA.7.050 human IgG1 (antibody, V domains shown)
VH: EVQLVQSGAEVKKPGSSVKVSCKASGGTFSSYAISWVRQAPGQGLEWMGGIIPIFGTANYAQKFQGRVTITADKSTSTAYMELSSLRSEDTAVYYCARGPWYYDSSGYSSYAYYMDVWGQGTTVTVSS
VL: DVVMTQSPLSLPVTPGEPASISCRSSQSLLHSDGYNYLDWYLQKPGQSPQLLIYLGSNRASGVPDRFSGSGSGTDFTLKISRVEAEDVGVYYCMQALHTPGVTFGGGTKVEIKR
notes: also called CPA.7.50
The molecule B8 returned a Kd in experiment [5] of 68.3 nM.
